B1: full-length Adv5 hexon protein (natural protein)
chain: MATPSMMPQWSYMHISGQDASEYLSPGLVQFARATETYFSLNNKFRNPTVAPTHDVTTDRSQRLTLRFIPVDREDTAYSYKARFTLAVGDNRVLDMASTYFDIRGVLDRGPTFKPYSGTAYNALAPKGAPNPCEWDEAATALEINLEEEDDDNEDEVDEQAEQQKTHVFGQAPYSGINITKEGIQIGVEGQTPKYADKTFQPEPQIGESQWYETEINHAAGRVLKKTTPMKPCYGSYAKPTNENGGQGILVKQQNGKLESQVEMQFFSTTEATAGNGDNLTPKVVLYSEDVDIETPDTHISYMPTIKEGNSRELMGQQSMPNRPNYIAFRDNFIGLMYYNSTGNMGVLAGQASQLNAVVDLQDRNTELSYQLLLDSIGDRTRYFSMWNQAVDSYDPDVRIIENHGTEDELPNYCFPLGGVINTETLTKVKPKTGQENGWEKDATEFSDKNEIRVGNNFAMEINLNANLWRNFLYSNIALYLPDKLKYSPSNVKISDNPNTYDYMNKRVVAPGLVDCYINLGARWSLDYMDNVNPFNHHRNAGLRYRSMLLGNGRYVPFHIQVPQKFFAIKNLLLLPGSYTYEWNFRKDVNMVLQSSLGNDLRVDGASIKFDSICLYATFFPMAHNTASTLEAMLRNDTNDQSFNDYLSAANMLYPIPANATNVPISIPSRNWAAFRGWAFTRLKTKETPSLGSGYDPYYTYSGSIPYLDGTFYLNHTFKKVAITFDSSVSWPGNDRLLTPNEFEIKRSVDGEGYNVAQCNMTKDWFLVQMLANYNIGYQGFYIPESYKDRMYSFFRNFQPMSRQVVDDTKYKDYQQVGILHQHNNSGFVGYLAPTMREGQAYPANFPYPLIGKTAVDSITQKKFLCDRTLWRIPFSSNFMSMGALTDLGQNLLYANSAHALDMTFEVDPMDEPTLLYVLFEVFDVVRVHRPHRGVIETVYLRTPFSAGNATT
notes: also called human adenovirus 5 hexon; source: purified from Adv5-infected cells (CsCl-gradient, size exclusion)
B2: recombinant humanized IgG1 version of 9C12 (h9C12), wild type (antibody, V domains shown)
VH: VQLKQSGPGLLQPSQRLSITCTVSGFSLGRYGVHWIRQSPGKGLEWLGVIWRGGTTDYNAVFMSRLSINKDDSKSQVFFTMNSLRPDDTAIYYCARQGSNFPLAYWGQGTLVTVSA
VL: NIVMTQTPKFLLVSIGDSITITCKASQSVTNDAAWYQKKPGQSPQLLIYQASTRYTGVPDRFSGSGYGTDFTFTISAVQAEDLAVYFCHQDYSSPLTFGAGTKLELK
B3: h9C12 Fab Q97A/S99A/F101A/L103A (Fab, V domains shown)
VH: VQLKQSGPGLLQPSQRLSITCTVSGFSLGRYGVHWIRQSPGKGLEWLGVIWRGGTTDYNAVFMSRLSINKDDSKSQVFFTMNSLRPDDTAIYYCARAGANAPAAYWGQGTLVTVSA
VL: NIVMTQTPKFLLVSIGDSITITCKASQSVTNDAAWYQKKPGQSPQLLIYQASTRYTGVPDRFSGSGYGTDFTFTISAVQAEDLAVYFCHQDYSSPLTFGAGTKLELK
notes: also called combined alanine mutations in H3; source: HEK293E, transiently co-transfected, purified (CaptureSelect CH1, SEC Superdex 75)
B4: h9C12 Fab Q97R (Fab, V domains shown)
VH: VQLKQSGPGLLQPSQRLSITCTVSGFSLGRYGVHWIRQSPGKGLEWLGVIWRGGTTDYNAVFMSRLSINKDDSKSQVFFTMNSLRPDDTAIYYCARRGSNFPLAYWGQGTLVTVSA
VL: NIVMTQTPKFLLVSIGDSITITCKASQSVTNDAAWYQKKPGQSPQLLIYQASTRYTGVPDRFSGSGYGTDFTFTISAVQAEDLAVYFCHQDYSSPLTFGAGTKLELK
notes: source: HEK293E, transiently co-transfected, purified (CaptureSelect CH1, SEC Superdex 75)
B5: h9C12 Fab G32P (Fab, V domains shown)
VH: VQLKQSGPGLLQPSQRLSITCTVSGFSLGRYPVHWIRQSPGKGLEWLGVIWRGGTTDYNAVFMSRLSINKDDSKSQVFFTMNSLRPDDTAIYYCARQGSNFPLAYWGQGTLVTVSA
VL: NIVMTQTPKFLLVSIGDSITITCKASQSVTNDAAWYQKKPGQSPQLLIYQASTRYTGVPDRFSGSGYGTDFTFTISAVQAEDLAVYFCHQDYSSPLTFGAGTKLELK
notes: as for B4
B6: h9C12 Fab G98P (Fab, V domains shown)
VH: VQLKQSGPGLLQPSQRLSITCTVSGFSLGRYGVHWIRQSPGKGLEWLGVIWRGGTTDYNAVFMSRLSINKDDSKSQVFFTMNSLRPDDTAIYYCARQPSNFPLAYWGQGTLVTVSA
VL: NIVMTQTPKFLLVSIGDSITITCKASQSVTNDAAWYQKKPGQSPQLLIYQASTRYTGVPDRFSGSGYGTDFTFTISAVQAEDLAVYFCHQDYSSPLTFGAGTKLELK
notes: as for B4
B7: h9C12 Fab (wild type) (Fab, V domains shown)
VH: VQLKQSGPGLLQPSQRLSITCTVSGFSLGRYGVHWIRQSPGKGLEWLGVIWRGGTTDYNAVFMSRLSINKDDSKSQVFFTMNSLRPDDTAIYYCARQGSNFPLAYWGQGTLVTVSA
VL: NIVMTQTPKFLLVSIGDSITITCKASQSVTNDAAWYQKKPGQSPQLLIYQASTRYTGVPDRFSGSGYGTDFTFTISAVQAEDLAVYFCHQDYSSPLTFGAGTKLELK
notes: also called WT h9C12; humanized 9C12; source: HEK293E, transiently co-transfected, purified (CaptureSelect CH1, SEC Superdex 75)
B8: h9C12 Fab G53P (Fab, V domains shown)
VH: VQLKQSGPGLLQPSQRLSITCTVSGFSLGRYGVHWIRQSPGKGLEWLGVIWRPGTTDYNAVFMSRLSINKDDSKSQVFFTMNSLRPDDTAIYYCARQGSNFPLAYWGQGTLVTVSA
VL: NIVMTQTPKFLLVSIGDSITITCKASQSVTNDAAWYQKKPGQSPQLLIYQASTRYTGVPDRFSGSGYGTDFTFTISAVQAEDLAVYFCHQDYSSPLTFGAGTKLELK
notes: as for B4
B9: h9C12 Fab Q97A (Fab, V domains shown)
VH: VQLKQSGPGLLQPSQRLSITCTVSGFSLGRYGVHWIRQSPGKGLEWLGVIWRGGTTDYNAVFMSRLSINKDDSKSQVFFTMNSLRPDDTAIYYCARAGSNFPLAYWGQGTLVTVSA
VL: NIVMTQTPKFLLVSIGDSITITCKASQSVTNDAAWYQKKPGQSPQLLIYQASTRYTGVPDRFSGSGYGTDFTFTISAVQAEDLAVYFCHQDYSSPLTFGAGTKLELK
notes: as for B4
B10: h9C12 Fab G29R/R30S (Fab, V domains shown)
VH: VQLKQSGPGLLQPSQRLSITCTVSGFSLRSYGVHWIRQSPGKGLEWLGVIWRGGTTDYNAVFMSRLSINKDDSKSQVFFTMNSLRPDDTAIYYCARQGSNFPLAYWGQGTLVTVSA
VL: NIVMTQTPKFLLVSIGDSITITCKASQSVTNDAAWYQKKPGQSPQLLIYQASTRYTGVPDRFSGSGYGTDFTFTISAVQAEDLAVYFCHQDYSSPLTFGAGTKLELK
notes: as for B4
B11: h9C12 Fab T55S (Fab, V domains shown)
VH: VQLKQSGPGLLQPSQRLSITCTVSGFSLGRYGVHWIRQSPGKGLEWLGVIWRGGSTDYNAVFMSRLSINKDDSKSQVFFTMNSLRPDDTAIYYCARQGSNFPLAYWGQGTLVTVSA
VL: NIVMTQTPKFLLVSIGDSITITCKASQSVTNDAAWYQKKPGQSPQLLIYQASTRYTGVPDRFSGSGYGTDFTFTISAVQAEDLAVYFCHQDYSSPLTFGAGTKLELK
notes: as for B4
B12: h9C12 Fab W51E (Fab, V domains shown)
VH: VQLKQSGPGLLQPSQRLSITCTVSGFSLGRYGVHWIRQSPGKGLEWLGVIERGGTTDYNAVFMSRLSINKDDSKSQVFFTMNSLRPDDTAIYYCARQGSNFPLAYWGQGTLVTVSA
VL: NIVMTQTPKFLLVSIGDSITITCKASQSVTNDAAWYQKKPGQSPQLLIYQASTRYTGVPDRFSGSGYGTDFTFTISAVQAEDLAVYFCHQDYSSPLTFGAGTKLELK
notes: as for B4
B13: 9C12 Fab (original mouse format, SPR) (Fab, V domains shown)
VH: VQLKQSGPGLLQPSQRLSITCTVSGFSLGRYGVHWIRQSPGKGLEWLGVIWRGGTTDYNAVFMSRLSINKDDSKSQVFFTMNSLRPDDTAIYYCARQGSNFPLAYWGQGTLVTVSA
VL: NIVMTQTPKFLLVSIGDSITITCKASQSVTNDAAWYQKKPGQSPQLLIYQASTRYTGVPDRFSGSGYGTDFTFTISAVQAEDLAVYFCHQDYSSPLTFGAGTKLELK
notes: also called mouse WT 9C12; source: gene fragment synthesized as cDNA; host stated only for the h9C12 variants (HEK293E)
B14: h9C12 Fab N100A (Fab, V domains shown)
VH: VQLKQSGPGLLQPSQRLSITCTVSGFSLGRYGVHWIRQSPGKGLEWLGVIWRGGTTDYNAVFMSRLSINKDDSKSQVFFTMNSLRPDDTAIYYCARQGSAFPLAYWGQGTLVTVSA
VL: NIVMTQTPKFLLVSIGDSITITCKASQSVTNDAAWYQKKPGQSPQLLIYQASTRYTGVPDRFSGSGYGTDFTFTISAVQAEDLAVYFCHQDYSSPLTFGAGTKLELK
notes: as for B4
B15: h9C12 Fab G98C/S99H (Fab, V domains shown)
VH: VQLKQSGPGLLQPSQRLSITCTVSGFSLGRYGVHWIRQSPGKGLEWLGVIWRGGTTDYNAVFMSRLSINKDDSKSQVFFTMNSLRPDDTAIYYCARQCHNFPLAYWGQGTLVTVSA
VL: NIVMTQTPKFLLVSIGDSITITCKASQSVTNDAAWYQKKPGQSPQLLIYQASTRYTGVPDRFSGSGYGTDFTFTISAVQAEDLAVYFCHQDYSSPLTFGAGTKLELK
notes: as for B4

Molecular target: the molecule itself
Assay: crystal structure; 9C12 Fab and hexon mixed 1:1 to a 5 mg/ml complex; crystals in 15% MPD, 5% PEG 4K, 0.1 M imidazole pH 8; 2.7 Å
Settings: not given

Binder	binding result
B1	binds

molecular target: T1, recombinant AdV5 hexon protein (Human adenovirus C serotype 5 (HAdV-5), UniProt P04133); assay: cell-based or functional assay; settings: not given

Binder	neutralization of Adv5 infection in HEK293T cells
B2	~25 fold

molecular target: T1, recombinant AdV5 hexon protein; assay: SPR; settings: both partners purified

Binder	binding result
B3	no binding
B4	no binding
B5	no binding
B6	no binding

molecular target: T1, recombinant AdV5 hexon protein; assay: SPR; settings: both partners purified; remark: another data set of the same source

Binder	Kd	koff	kon
B7	0.8 nM	0.00052 s⁻¹	635000 M⁻¹ s⁻¹
B8	330 nM	0.079 s⁻¹	239000 M⁻¹ s⁻¹
B9	462 nM	–	–
B10	92.8 nM	0.0049 s⁻¹	53000 M⁻¹ s⁻¹
B11	1.2 nM	0.00095 s⁻¹	795000 M⁻¹ s⁻¹
B12	16900 nM	–	–
B13	1 nM	0.00045 s⁻¹	447000 M⁻¹ s⁻¹
B14	0.9 nM	0.00085 s⁻¹	889000 M⁻¹ s⁻¹
B15	288 nM	0.0052 s⁻¹	18000 M⁻¹ s⁻¹

— article PMC5121590, “Antibody-antigen kinetics constrain intracellular humoral immunity” (Scientific Reports, 2016)
